Substitutions are numbered along the chain they refer to. In names and notes the source's numbering stands.
Tests used:
IL-4 receptor α chain [1] = biological target: T1, IL-4 receptor α chain (UniProt P24394 26-232, limits assumed); assay: Biacore, IL-4 receptor α chain immobilized
T1 construct: also called IL-4Rα; IL-4-receptor alpha chain
T1 sequence (looked up): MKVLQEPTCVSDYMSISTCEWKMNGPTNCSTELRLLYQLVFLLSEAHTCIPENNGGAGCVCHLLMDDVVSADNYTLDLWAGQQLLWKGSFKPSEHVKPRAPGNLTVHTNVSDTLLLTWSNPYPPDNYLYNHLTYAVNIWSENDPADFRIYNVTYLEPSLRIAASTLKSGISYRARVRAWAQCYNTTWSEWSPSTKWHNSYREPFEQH

IL-4 receptor α chain [2] = biological target: T1, IL-4 receptor α chain; assay: Biacore, pre- and post-nebulized samples (Aeroneb Pro), no difference between them
[3] = biological target: T2, wild type human Interleukin-4 (human, UniProt P05112 25-153); assay: cell-based or functional assay
T2 sequence (looked up): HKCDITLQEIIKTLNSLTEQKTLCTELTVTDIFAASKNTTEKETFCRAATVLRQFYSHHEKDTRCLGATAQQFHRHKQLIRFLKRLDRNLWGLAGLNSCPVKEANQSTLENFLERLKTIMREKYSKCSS

IL-4 receptor α chain [4] = biological target: T1, IL-4 receptor α chain; assay: Biacore, IL-4 receptor α chain immobilized (n = 7)

B1: IL-4RA (mutant human IL-4 protein with the R121D/Y124D pair of substitutions) (ligand, UniProt P05112 25-153, looked up)
chain: T2 sequence (looked up) with R121D, Y124D
notes: mature; Substitution positions count on the mature 129-residue protein, not on the precursor; also called mhIL-4; IL-4 mutein
B1 was tested, and the koff (IL-4 receptor α chain [1]) was 0.0017 s⁻¹, the kon (IL-4 receptor α chain [1]) was 1.6e+07 M⁻¹ s⁻¹ and the Kd (IL-4 receptor α chain [2]) was roughly 0.1 nM. For the same binder, the “TF-1/IL-4 proliferation assay, EC50 of inhibition of IL-4-induced cell proliferation” value [3] was 0.2 to 0.3 nM, the “TF-1/IL-4 proliferation assay, IC50, post nebulization (Pari LC Plus)” value [3] was 0.483 nM and the “TF-1/IL-4 proliferation assay, IC50, pre nebulization (Pari LC Plus)” value [3] was 0.459 nM. The Kd (IL-4 receptor α chain [4]) was 0.14 nM.

Source: patent US20110158939A1 (published 2011)
